{
  "source": "paper PMC3863616",
  "about": "(Journal of thrombosis and haemostasis : JTH, 2009)",
  "molecules": {"B1": {"name": "Endogenous ADAMTS13 of normal human plasma (enzyme, UniProt Q76LX8 75-1427, looked up)", "chain": "AAGGILHLELLVAVGPDVFQAHQEDTERYVLTNLNIGAELLRDPSLGAQFRVHLVKMVILTEPEGAPNITANLTSSLLSVCGWSQTINPEDDTDPGHADLVLYITRFDLELPDGNRQVRGVTQLGGACSPTWSCLITEDTGFDLGVTIAHEIGHSFGLEHDGAPGSGCGPSGHVMASDGAAPRAGLAWSPCSRRQLLSLLSAGRARCVWDPPRPQPGSAGHPPDAQPGLYYSANEQCRVAFGPKAVACTFAREHLDMCQALSCHTDPLDQSSCSRLLVPLLDGTECGVEKWCSKGRCRSLVELTPIAAVHGRWSSWGPRSPCSRSCGGGVVTRRRQCNNPRPAFGGRACVGADLQAEMCNTQACEKTQLEFMSQQCARTDGQPLRSSPGGASFYHWGAAVPHSQGDALCRHMCRAIGESFIMKRGDSFLDGTRCMPSGPREDGTLSLCVSGSCRTFGCDGRMDSQQVWDRCQVCGGDNSTCSPRKGSFTAGRAREYVTFLTVTPNLTSVYIANHRPLFTHLAVRIGGRYVVAGKMSISPNTTYPSLLEDGRVEYRVALTEDRLPRLEEIRIWGPLQEDADIQVYRRYGEEYGNLTRPDITFTYFQPKPRQAWVWAAVRGPCSVSCGAGLRWVNYSCLDQARKELVETVQCQGSQQPPAWPEACVLEPCPPYWAVGDFGPCSASCGGGLRERPVRCVEAQGSLLKTLPPARCRAGAQQPAVALETCNPQPCPARWEVSEPSSCTSAGGAGLALENETCVPGADGLEAPVTEGPGSVDEKLPAPEPCVGMSCPPGWGHLDATSAGEKAPSPWGSIRTGAQAAHVWTPAAGSCSVSCGRGLMELRFLCMDSALRVPVQEELCGLASKPGSRREVCQAVPCPARWQYKLAACSVSCGRGVVRRILYCARAHGEDDGEEILLDTQCQGLPRPEPQEACSLEPCPPRWKVMSLGPCSASCGLGTARRSVACVQLDQGQDVEVDEAACAALVRPEASVPCLIADCTYRWHVGTWMECSVSCGDGIQRRRDTCLGPQAQAPVPADFCQHLPKPVTVRGCWAGPCVGQGTPSLVPHEEAAAPGRTTATPAGASLEWSQARGLLFSPAPQPRRLLPGPQENSVQSSACGRQHLEPTGTIDMRGPGQADCAVAIGRPLGEVVTLRVLESSLNCSAGDMLLLWGRLTWRKMCRKLLDMTFSSKTNTLVVRQRCGRPGGGVLLRYGSQLAPETFYRECDMQLFGPWGEIVSPSLSPATSNAGGCRLFINVAPHARIAIHALATNMGAGTEGANASYILIRDTHSLRTTAFHGQQVLYWESESSQAEMEFSEGFLKAQASLRGQYWTLQSWVPEMQDPQSWKGKEGT"}, "B2": {"name": "Human recombinant ADAMTS13 with the active site mutation E225Q (enzyme, UniProt Q76LX8 75-1427, looked up)", "chain": "B1 chain with E151Q"}},
  "key": {"[1]": {"biological_target": "VWF (plastic-immobilized) (Homo sapiens) (UniProt P04275)", "details": "cited from earlier work"}, "[2]": {"biological_target": "VWF (antibody-immobilized) (Homo sapiens) (UniProt P04275)", "details": "cited from earlier work"}, "[3]": {"biological_target": "Purified recombinant von Willebrand factor (UniProt P04275)", "test": "co-IP + ELISA"}, "[4]": {"biological_target": "Endogenous von Willebrand factor of normal human plasma (human (endogenous in normal human …, UniProt P04275 764-2813))", "test": "co-IP + ELISA"}, "[5]": {"biological_target": "T1, Purified recombinant von Willebrand factor (UniProt P04275 764-2813)", "test": "co-IP + ELISA"}, "[6]": {"biological_target": "T1, Purified recombinant von Willebrand …", "test": "co-IP + ELISA", "remark": "listed apart in the source"}},
  "note": "Positions count from the first letter of the chain named. In names and notes the source's numbering stands. Where two headings read alike, the source gives them in different places.",
  "data": [
    {"molecule": "ADAMTS13 (from UniProt Q76LX8)", "values": [
      {"measurement": "Kd", "setting": "[1]", "value": 14, "unit": "nM"},
      {"measurement": "Kd", "setting": "[2]", "value": 90, "unit": "nM"}
    ]},
    {"molecule": "Human recombinant ADAMTS13 truncated after the eighth TSR (domain or fragment)", "values": [
      {"measurement": "Kd", "setting": "[3]", "value": 100, "unit": "nM"}
    ]},
    {"molecule": "B1", "values": [
      {"measurement": "stoichiometry N", "setting": "[4]", "value": "0.004 ADAMTS13 per VWF (molar ratio)"}
    ]},
    {"molecule": "B2", "values": [
      {"measurement": "Kd", "setting": "[5]", "value": "> 500", "unit": "nM"},
      {"measurement": "Kd", "setting": "[6]", "value": 79, "unit": "nM"}
    ]}
  ]
}
